Measurements taken from patent US9809653B2, “Anti-LAMP1 antibodies and antibody drug conjugates, and uses thereof” (SANOFI, priority 2012, dated 2017).
Read-outs that look alike come from different tables or passages of the source.

T1: hLAMP1_ΔGYQTI (Homo sapiens, UniProt P11279)
T1 construct: expressed in transfected cells; host or cells: 293-F (HEK293-derived), transient transfection, plasmid pXL5626
T1 sequence (P11279 with tags, fused parts or gaps limits assumed): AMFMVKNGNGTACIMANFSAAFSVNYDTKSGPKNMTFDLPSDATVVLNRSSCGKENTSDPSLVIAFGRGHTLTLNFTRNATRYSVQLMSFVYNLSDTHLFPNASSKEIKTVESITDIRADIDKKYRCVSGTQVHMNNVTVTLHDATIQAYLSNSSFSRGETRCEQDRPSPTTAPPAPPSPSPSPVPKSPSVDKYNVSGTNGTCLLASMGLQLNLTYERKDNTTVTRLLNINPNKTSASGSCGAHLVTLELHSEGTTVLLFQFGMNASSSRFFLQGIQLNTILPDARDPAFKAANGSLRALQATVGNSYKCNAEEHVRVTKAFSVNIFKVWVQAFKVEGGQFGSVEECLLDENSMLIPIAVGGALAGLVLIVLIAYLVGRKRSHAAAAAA


Legend:
[1] = system: hybrid between murine and human LAMP1 domains; experiment: Epitope ELISA on human/mouse hybrid LAMP1 extracellular domains; assay type: binding
Source text: The high level of glycosylation of the antigen required a specific approach to determine the binding site of the anti-LAMP1 mAbs on LAMP1. […] This absence of binding was used to design several chimeric LAMP1 proteins in which one or several of the LAMP1 domains (Loop1-Loop4) in the human construct were replaced by the murine counterpart. The absence of binding once the binding site of the antibody was replaced by the murine counterpart allowed for identification of the antibody binding side.

[2] = system: Colon Colo205 tumoral cells expressing LAMP1; experiment: Internalization score by ImageStream multispectral imaging flow cytometer; assay type: cell-based, human; details: Colo205, 10 μg/ml AlexaFluor488-labeled antibody
Source text: The internalization score (IS) is defined as a ratio of the fluorescence intensity inside the cell to the intensity of the entire cell. […] The higher the score, the greater the fluorescence intensity is inside the cell. As described by Amnis (see the world wide web at amnis.com), the inside of the cell is defined by an erosion of a mask that fits the membrane of the cell. The score is invariant to cell size and can accommodate concentrated bright regions and small dim spots. The ratio is mapped to a logarithmic scale to increase the dynamic range to values between {−inf, inf}. The thickness of the membrane (in pixels) determines which pixels are used to define the boundary and the membrane portions of the cell. The user supplies an ‘internal’ mask based on the brightfield image that covers the inside of the cell, the thickness of the membrane in pixels and the fluorescent channel of interest. The cell is divided into 2 regions: External (B) and internal (I). The user supplies the internal region as the mask. The external region is determined by: 1. Dilating the internal mask by the membrane thickness. 2. Combining 1 with the object mask of the channel of interest. 3. External region equals mask 2 and not the internal mask. Next, the mean intensity of the upper quartile of the pixels in each region is determined. The Internalization Score (IS) is then computed as follows:
Cells were washed by centrifugation with PBS 1% BSA at 400 g for 5 minutes. Cells were fixed and permeabilized using 100 μL of Perm/Fix buffer on ice for 20 minutes. Cells were washed by centrifugation with 1 mL of Perm/Wash Cell buffer at 400 g for 5 minutes.
To test whether internalized antibodies accumulate in lysosomes, simultaneous uptake of mAbs and AlexaFluor647-labeled CD107a (a lysosomal marker) were carried out. […] After incubation, 1 mL Perm/Wash Cell buffer was added to wash, before centrifuging (400 g, 5 min). The supernatant was flicked from the plate before the cells were fixed with 200 μL 1% formaldehyde on ice for 20 minutes. The fluorescence of cells was analyzed with the ImageStream multispectral imaging flow cytometer (Amnis corp.) using the Internalization feature. Five thousand events were acquired for each experimental condition and the corresponding images were analyzed using the IDEAS image-analysis software.

hLAMP1_ΔGYQTI = target: T1, hLAMP1_ΔGYQTI; experiment: Binding onto membrane-anchored human LAMP1 (293-F cells) by flow cytometry; details: pXL5626 hLAMP1_ΔGYQTI
Protocol: Different LAMP1 proteins were expressed at the cell membrane of HEK293 cells after transient expression from mammalian plasmids encoding the entire coding sequence of LAMP1 deleted of the intracellular lysosome-targeting motif GYQTI and substituted by a 5-Ala repeat sequence.
Two days post transfection cells were processed, analyzed by flow cytometry (Guava® easyCyte™ 8HT) as mentioned in example 4.7, and the mean fluorescence was recorded. This fluorescence represents a semi-quantitative assessment of binding.

[3] = read-out: EC50 (nM) Loop1-2: hLAMP1 Loop3-4: mLAMP1
[4] = read-out: EC50 (nM) Loop1-3: hLAMP1 Loop4: mLAMP1

Row | EC50 (nM) Loop1-2: mLAMP1 Loop3-4: hLAMP1 [1] | EC50 (nM) Loop1: mLAMP1 Loop2-4: hLAMP1 [1] | EC50 [1, 3] [nM] | EC50 [1, 4] [nM] | Binding call (hLAMP1_ΔGYQTI; Table 17 Experiment no1) | Mean fluorescence (hLAMP1_ΔGYQTI; Table 17 Experiment no1) | Binding call (hLAMP1_ΔGYQTI; Table 18) | Mean fluorescence (hLAMP1_ΔGYQTI; Table 18) | EC50 ([1]; read-out: EC50 (nM) Loop1: mLAMP1 Loop2-4: hLAMP1) [nM] | Binding call (hLAMP1_ΔGYQTI; Table 17 Experiment no2) | Mean fluorescence (hLAMP1_ΔGYQTI; Table 17 Experiment no2) | Molecule | Internalization score (IS) 4° C., 4 hr [2] | Internalization score (IS) 37° C., 4 hr [2]
1 | No binding | No binding | 0.25 | 0.25 | binding | 1183 | Binding | 757 |  |  |  | MAb2: murine monoclonal anti-LAMP1 antibody, VH SEQ ID NO: 8, VL SEQ ID NO: 12 (antibody, V domains shown, antibod fragment; antibody fragment) VH: QVQLQQSAAELARPGASVKMSCKASGYTFTSYTMHWVKQRPGQGLEWIGYFNPSSGYPEYNQKFKDKTTLTADKSSNTAFIQLNSLTSEDSAVYYCSRGYYYGSRGYALDFWGQGASVTVSS VL: NIVLTQSPVSLAVSLGQRATISCRASESVDINGNTFMHWYQQKPGQSPKLVIYAASNIESGVPARFSGSGSSTDFTFTIDPVEADDVATYYCQQNIEDPWTFGGGTKVEIK | 0.19 | 2.24
2 | No binding |  | 0.18 | 0.16 | Binding | 1748 | Binding | 914 | 0.15 | Full binding | 551 | MAb1: murine monoclonal anti-LAMP1 antibody, VH SEQ ID NO: 1, VL SEQ ID NO: 5 (antibody, V domains shown, Antibody Fragment; antibody fragment) VH: QVQLQQSGAELVKPGASVKMSCKASGYIFTNYNIHWVKKSPGQGLEWIGAIYPGNGDAPYSQKFKDKATLTADKSSSTTYMQLSRLTSEDSAVYYCVRANWDVAFAYWGQGTLVSVSA VL: DIQMTQSPPSLSASLGGKVTITCKASQDIDRYMAWYQDKPGKGPRLLIHDTSTLQPGIPSRFSGSGSGRDYSFSISNLEPEDIATYYCLQYDNLWTFGGGTKLEIK | 0.22 | 2.22
